From patent US20250368686A1, “PEPTIDE DRUGS FOR S[…] D[…] BLOCKING HOMO- AND HETERO-DIMERIZATION OF OPIOID RECEPTORS” (OKINAWA INSTITUTE OF SCIENCE AND TECHNOLOGY SCHOOL …, priority 2022, published 2025)
Blank lines part the entries; values can stand above or below the substance they belong to.

Key:
[1] = molecular target: µ-type opioid receptor (MOR), rat, wild type, fluorescently tagged, expressed in the PM of CHO-K1 cells (Example 1) (rat) (UniProt P33535); assay: distribution of colocalisation durations with WT-MOR; single-molecule imaging
[2] = molecular target: δ-type opioid receptor (DOR), rat, wild type, fluorescently tagged, expressed in the PM of CHO-K1 cells (Example 1) (rat) (UniProt P33533); assay: distribution of colocalisation durations with WT-DOR; single-molecule imaging
[3] = molecular target: SNAPf-DOR: rat DOR with the SNAPf tag protein at its N-terminus, expressed in the PM of CHO-K1 cells (Example 2) (rat) (UniProt P33533); assay: single-molecule imaging, PCCF fit; copies/um2
[4] = molecular target: SNAPf-DOR: rat DOR with the SNAPf tag protein at its N-terminus, expressed in the PM of CHO-K1 cells (Example 2) (rat) (UniProt P33533); assay: single-molecule imaging, homodimer 2D-KD; copies/um2; + agonist
[5] = molecular target: SNAPf-DOR: rat DOR with the SNAPf tag protein at its N-terminus, expressed in the PM of CHO-K1 cells (Example 2) (rat) (UniProt P33533); assay: single-molecule imaging, homodimer 2D-KD; copies/um2; - agonist

dimer lifetime (τ2) [1]: 88 ms
Substance: DORΔ22-42 (DOR N-terminal deletion mutant) (from UniProt P33533 1-21; P33533 43-372) (receptor)

dimer lifetime (τ2) [2]: 91 ms
Substance: MORΔ32-61 (MOR N-terminal deletion mutant) (from UniProt P33535 1-31; P33535 62-398) (receptor)

Kd [3]: 7.91 ?
Kd [4]: 3.58 ?
Kd [5]: 7.91 ?
Substance: SNAPf-DOR: rat DOR with the SNAPf tag protein at its N-terminus, expressed in the PM of CHO-K1 cells (Example 2) (from UniProt P33533 1-372)
